Series [1] deals with PABP1 (Homo sapiens) (UniProt P11940). The note with it: cited from earlier work.
Series [2] deals with T1, PABP1 (human, UniProt P11940 1-636). As to the kind of experiment: EMSA. For orientation: Mobility shift assays separate free from complexed probe on a gel.
Series [3] addresses WT NS1-RBD (Influenza A virus A/Udorn/307/1972 …, UniProt P03495 1-73). Put plainly: fluorescence anisotropy. In general terms: In fluorescence polarisation assays a small probe gives low polarisation when free and higher when bound to something large.
For series [4], the target named is T1, PABP1. Put plainly: EMSA. The source holds these as a separate data set.
Series [5] addresses T1, PABP1. Put plainly: EMSA. The source holds these as a separate data set.

Where two headings read alike, the source gives them in different places.

T1 sequence (P11940 whole entry): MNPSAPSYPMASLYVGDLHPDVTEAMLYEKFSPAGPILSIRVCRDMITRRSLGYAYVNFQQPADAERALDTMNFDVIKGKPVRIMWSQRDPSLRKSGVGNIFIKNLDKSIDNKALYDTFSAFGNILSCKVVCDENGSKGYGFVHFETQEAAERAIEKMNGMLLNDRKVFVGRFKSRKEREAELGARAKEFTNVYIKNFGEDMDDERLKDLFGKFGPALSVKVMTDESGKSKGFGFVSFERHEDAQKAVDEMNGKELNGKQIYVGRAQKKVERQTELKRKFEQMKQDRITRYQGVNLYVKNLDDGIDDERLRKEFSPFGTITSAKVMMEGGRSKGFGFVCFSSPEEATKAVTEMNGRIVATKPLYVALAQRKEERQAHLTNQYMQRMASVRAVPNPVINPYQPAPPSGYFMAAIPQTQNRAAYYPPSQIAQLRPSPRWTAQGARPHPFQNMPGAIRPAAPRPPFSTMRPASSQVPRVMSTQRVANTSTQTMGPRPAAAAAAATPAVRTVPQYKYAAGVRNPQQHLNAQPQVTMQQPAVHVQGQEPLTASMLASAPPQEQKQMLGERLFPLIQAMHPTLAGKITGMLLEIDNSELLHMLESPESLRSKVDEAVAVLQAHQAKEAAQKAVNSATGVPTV
Chain of PABP1 (Homo sapiens) (P11940 whole entry): as above
Chain of WT NS1-RBD (P03495 1-73): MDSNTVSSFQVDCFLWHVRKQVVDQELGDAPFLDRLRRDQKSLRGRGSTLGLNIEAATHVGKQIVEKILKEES

Turning to NS1 (from UniProt Q8QPI8), in series [1], the Kd was 20 nM. For the molecule GCUAUCCAGAUUCUGAUU (ssRNA) [ssCR1], the binding result in series [2] is reported as “no binding”.

B1: dsRK1 (dsRNA)
RNA 1: CCAUCCUCUACAGGCG
RNA 2: CGCCUGUAGAGGAUGG
B1 returned a Kd in series [3] of 76 ± 9 nM.

B2: poly(A)60 (ssRNA)
RNA: AAAAAAAAAAAAAAAAAAAAAAAAAAAAAAAAAAAAAAAAAAAAAAAAAAAAAAAAAAAA
B2: in series [4], the binding result is given as “binds”. AAAAAAAAAAAAAAAAAA (ssRNA) [poly(A)18]: the binding result in series [5] is given as “binds”.

A word on the Kd: it is the concentration at which binding is half-saturated.

Values taken from PMC8034803.
